Square brackets hold non-standard residues; d marks the D form. Ends that are not written are not given here. Tyr(3-NO2) = N[C@@H](Cc1ccc(O)c([N+](=O)[O-])c1)C(=O)O; 2Abz = Nc1ccccc1C(=O)O
Assays:
Assay type in all cases: biochemical
[1] = biological target: uPA (Homo sapiens, UniProt P00749); assay: FRET peptide cleavage efficiency with uPA
[2] = biological target: T1, matriptase (Homo sapiens, UniProt Q9Y5Y6); assay: FRET peptide cleavage efficiency with matriptase
T1 construct: purchased R&D Systems 3946-SEB
T1 sequence (Q9Y5Y6 615-855 limits assumed): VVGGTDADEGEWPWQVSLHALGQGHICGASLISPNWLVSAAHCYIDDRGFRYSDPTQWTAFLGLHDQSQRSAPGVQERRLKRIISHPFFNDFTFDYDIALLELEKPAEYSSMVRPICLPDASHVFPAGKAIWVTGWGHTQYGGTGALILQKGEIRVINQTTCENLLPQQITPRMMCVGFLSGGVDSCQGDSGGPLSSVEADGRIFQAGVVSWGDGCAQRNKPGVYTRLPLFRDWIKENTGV

[3] = biological target: T2, MMP-2 (Homo sapiens, UniProt P08253); assay: FRET peptide cleavage efficiency with MMP-2
T2 construct: purchased SIGMA PF023
T2 sequence (P08253 110-660): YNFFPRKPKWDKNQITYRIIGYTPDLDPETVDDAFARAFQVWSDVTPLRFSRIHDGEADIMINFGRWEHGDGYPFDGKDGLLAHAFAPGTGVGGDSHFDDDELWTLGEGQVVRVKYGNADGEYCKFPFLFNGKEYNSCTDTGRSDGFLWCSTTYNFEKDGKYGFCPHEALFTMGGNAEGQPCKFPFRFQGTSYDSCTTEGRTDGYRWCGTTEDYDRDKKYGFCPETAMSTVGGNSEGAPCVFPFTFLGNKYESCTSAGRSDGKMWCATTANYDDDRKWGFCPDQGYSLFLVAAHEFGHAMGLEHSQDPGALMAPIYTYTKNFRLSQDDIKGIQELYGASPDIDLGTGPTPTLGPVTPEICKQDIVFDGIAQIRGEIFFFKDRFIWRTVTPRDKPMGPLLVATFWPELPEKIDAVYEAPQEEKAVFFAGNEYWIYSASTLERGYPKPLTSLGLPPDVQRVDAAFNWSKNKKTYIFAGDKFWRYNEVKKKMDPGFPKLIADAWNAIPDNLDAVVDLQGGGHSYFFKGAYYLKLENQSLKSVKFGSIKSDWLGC

[4] = biological target: T3, MMP-7 (Homo sapiens, UniProt P09237); assay: FRET peptide cleavage efficiency with MMP-7 (standard pH 7.5; also pH 6.5)
T3 construct: purchased SIGMA CC1059
T3 sequence (P09237 95-267): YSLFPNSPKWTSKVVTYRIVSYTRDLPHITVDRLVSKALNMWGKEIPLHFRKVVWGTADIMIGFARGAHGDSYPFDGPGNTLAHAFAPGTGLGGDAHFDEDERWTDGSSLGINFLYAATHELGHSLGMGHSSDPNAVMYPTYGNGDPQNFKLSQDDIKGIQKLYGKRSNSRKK

[5] = biological target: T4, MMP-9 (Homo sapiens, UniProt P14780); assay: FRET peptide cleavage efficiency with MMP-9 (standard pH 7.5; also pH 6.5)
T4 construct: purchased SIGMA PF024

[6] = t = 15 min, standard conditions (Table 8)
[7] = t = 60 min, standard conditions (Table 8)
[8] = t = 120 min, standard conditions (Table 8)

T4 sequence (P14780 94-707): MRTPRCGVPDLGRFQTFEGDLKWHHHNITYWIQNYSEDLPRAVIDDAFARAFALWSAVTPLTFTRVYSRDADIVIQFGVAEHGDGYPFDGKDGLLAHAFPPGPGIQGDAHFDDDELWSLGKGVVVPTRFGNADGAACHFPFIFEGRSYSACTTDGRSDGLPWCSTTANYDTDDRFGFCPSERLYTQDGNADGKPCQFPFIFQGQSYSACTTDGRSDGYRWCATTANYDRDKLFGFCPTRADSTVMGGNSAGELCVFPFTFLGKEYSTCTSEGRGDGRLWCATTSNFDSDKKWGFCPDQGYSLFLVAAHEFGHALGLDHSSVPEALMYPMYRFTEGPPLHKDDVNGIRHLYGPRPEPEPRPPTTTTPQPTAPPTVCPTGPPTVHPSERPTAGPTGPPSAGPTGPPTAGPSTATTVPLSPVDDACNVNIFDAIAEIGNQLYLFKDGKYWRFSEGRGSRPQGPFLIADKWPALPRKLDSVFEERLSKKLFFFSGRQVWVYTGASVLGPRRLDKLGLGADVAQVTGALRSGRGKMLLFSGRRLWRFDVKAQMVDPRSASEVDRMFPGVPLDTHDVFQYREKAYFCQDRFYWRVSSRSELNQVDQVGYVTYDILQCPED

With “SGRVAGLVG ([2Abz]SGRVAGLVG[Tyr(3-NO2)]-NH2) [LNK016]” the “% cleavage uPA t = 60 min” value ([1]; pH 6.5, t = 60 min (Table 7)) was 0%, the “% cleavage uPA t = 120 min” value ([1]; pH 6.5, t = 120 min (Table 7)) was 0% and the “% cleavage uPA t = 60 min” value ([1]; pH 7.5, t = 60 min (Table 7)) was 4%. For the same sequence, the “% cleavage uPA t = 120 min” value ([1]; pH 7.5, t = 120 min (Table 7)) was 10%, the “% cleavage uPA t = 15 min” value ([1]; t = 15 min, 200 uM linker, 1 ug/ml protease, 37° C., buffer A pH 8.5) was 2% and the “% cleavage uPA t = 60 min” value ([1]; t = 60 min, 200 uM linker, 1 ug/ml protease, 37° C., buffer A pH 8.5) was 6%. The “% cleavage uPA t = 120 min” value ([1]; t = 120 min, 200 uM linker, 1 ug/ml protease, 37° C., buffer A pH 8.5) was 12%, the “% cleavage Matriptase t = 15 min” value ([2]; pH 6.5, t = 15 min (Table 7)) was 8% and the “% cleavage Matriptase t = 60 min” value ([2]; pH 6.5, t = 60 min (Table 7)) was 24%. For the same sequence, the “% cleavage Matriptase t = 15 min” value ([2]; pH 7.5, t = 15 min (Table 7)) was 17%, the “% cleavage Matriptase t = 60 min” value ([2]; pH 7.5, t = 60 min (Table 7)) was 54% and the “% cleavage Matriptase t = 15 min” value ([2]; t = 15 min, 200 uM linker, 1 ug/ml protease, 37° C., buffer B pH 9.0) was 22%. For the same sequence, the “% cleavage Matriptase t = 60 min” value ([2]; t = 60 min, 200 uM linker, 1 ug/ml protease, 37° C., buffer B pH 9.0) was 70%, the “% cleavage Matriptase t = 120 min” value ([2]; 200 uM linker, 1 ug/ml protease, 37° C., buffer B pH 9.0) was 92% and the “% cleavage MMP-2 t = 15 min” value ([3]; pH 6.5, t = 15 min (Table 7)) was 84%. The “% cleavage MMP-2 t = 60 min” value ([3]; pH 6.5, t = 60 min (Table 7)) was 100%, the “% cleavage MMP-2 t = 15 min” value ([3]; pH 7.5, t = 15 min (Table 7)) was 87% and the “% cleavage MMP-2 t = 60 min” value ([3]; pH 7.5, t = 60 min (Table 7)) was 100%. The “% cleavage MMP-2 t = 15 min” value ([3]; t = 15 min (Table 9)) was 72%, the “% cleavage MMP-2 t = 15 min” value ([3]; t = 15 min, 200 uM linker, 1 ug/ml protease, 37° C., buffer C pH 7.5) was 85% and the “% cleavage MMP-2 t = 60 min” value ([3]; t = 60 min (Table 9)) was 100%. For the same sequence, the “% cleavage MMP-2 t = 60 min” value ([3]; t = 60 min, 200 uM linker, 1 ug/ml protease, 37° C., buffer C pH 7.5) was 99%, the “% cleavage MMP-2 t = 120 min” value ([3]; t = 120 min (Table 9)) was 100% and the “% cleavage MMP-2 t = 120 min” value ([3]; t = 120 min, 200 uM linker, 1 ug/ml protease, 37° C., buffer C pH 7.5) was 99%. The “% cleavage MMP-7 t = 15 min” value ([4]; t = 15 min (Table 9)) was 11%, the “% cleavage MMP-7 t = 60 min” value ([4]; t = 60 min (Table 9)) was 43% and the “% cleavage MMP-7 t = 120 min” value ([4]; t = 120 min (Table 9)) was 70%. For the same sequence, the “% cleavage MMP-9 t = 15 min” value ([5]; t = 15 min (Table 9)) was 10%, the “% cleavage MMP-9 t = 60 min” value ([5]; t = 60 min (Table 9)) was 43% and the “% cleavage MMP-9 t = 120 min” value ([5]; t = 120 min (Table 9)) was 67%.

In the case of “RGRKSQPLVD ([2Abz]RGRKSQPLVD[Tyr(3-NO2)]-NH2) [LNK041]”, the “% vcleavage uPA t = 15 min” value [1, 6] was 0%, the “% cleavage uPA t = 60 min” value [1, 7] was 0% and the “% cleavage uPA t = 120 min” value [1, 8] was 0%. The “% cleavage Matriptase t = 15 min” value [2, 6] was 100%, the “% cleavage Matriptase t = 60 min” value [2, 7] was 100% and the “% cleavage Matriptase t = 120 min” value ([2]; standard conditions (Table 8)) was 100%. The “% cleavage MMP-2 t = 15 min” value ([3]; t = 15 min (Table 9)) was 0%, the “% cleavage MMP-2 t = 60 min” value ([3]; t = 60 min (Table 9)) was 0% and the “% cleavage MMP-2 t = 60 min” value [3, 7] was 0%. For the same sequence, the “% cleavage MMP-2 t = 120 min” value ([3]; t = 120 min (Table 9)) was 0%, the “% cleavage MMP-2 t = 120 min” value [3, 8] was 0% and the “% cleavage MMP-7 t = 15 min” value ([4]; t = 15 min (Table 9)) was 1%. The “% cleavage MMP-7 t = 15 min” value [4, 6] was 1%, the “% cleavage MMP-7 t = 60 min” value ([4]; t = 60 min (Table 9)) was 4% and the “% cleavage MMP-7 t = 60 min” value [4, 7] was 4%. For the same sequence, the “% cleavage MMP-7 t = 120 min” value ([4]; t = 120 min (Table 9)) was 9%, the “% cleavage MMP-7 t = 120 min” value [4, 8] was 9% and the “% cleavage MMP-9 t = 15 min” value ([5]; t = 15 min (Table 9)) was 0%. The “% cleavage MMP-9 t = 15 min” value [5, 6] was 0%, the “% cleavage MMP-9 t = 60 min” value ([5]; t = 60 min (Table 9)) was 1% and the “% cleavage MMP-9 t = 60 min” value [5, 7] was 1%. For the same sequence, the “% cleavage MMP-9 t = 120 min” value ([5]; t = 120 min (Table 9)) was 1% and the “% cleavage MMP-9 t = 120 min” value [5, 8] was 1%.

For “SGRVYMLQG ([2Abz]SGRVYMLQG[Tyr(3-NO2)]-NH2) [LNK044]”, the “% vcleavage uPA t = 15 min” value [1, 6] was 0%, the “% cleavage uPA t = 60 min” value [1, 7] was 0% and the “% cleavage uPA t = 120 min” value [1, 8] was 0%. For the same sequence, the “% cleavage Matriptase t = 15 min” value [2, 6] was 0%, the “% cleavage Matriptase t = 60 min” value [2, 7] was 0% and the “% cleavage Matriptase t = 120 min” value ([2]; standard conditions (Table 8)) was 0%. For the same sequence, the “% cleavage MMP-2 t = 15 min” value ([3]; t = 15 min (Table 9)) was 0%, the “% cleavage MMP-2 t = 60 min” value ([3]; t = 60 min (Table 9)) was 0% and the “% cleavage MMP-2 t = 60 min” value [3, 7] was 0%. For the same sequence, the “% cleavage MMP-2 t = 120 min” value ([3]; t = 120 min (Table 9)) was 1%, the “% cleavage MMP-2 t = 120 min” value [3, 8] was 1% and the “% cleavage MMP-7 t = 15 min” value ([4]; t = 15 min (Table 9)) was 1%. The “% cleavage MMP-7 t = 15 min” value [4, 6] was 1%, the “% cleavage MMP-7 t = 60 min” value ([4]; t = 60 min (Table 9)) was 4% and the “% cleavage MMP-7 t = 60 min” value [4, 7] was 4%. The “% cleavage MMP-7 t = 120 min” value ([4]; t = 120 min (Table 9)) was 9%, the “% cleavage MMP-7 t = 120 min” value [4, 8] was 9% and the “% cleavage MMP-9 t = 15 min” value ([5]; t = 15 min (Table 9)) was 0%. For the same sequence, the “% cleavage MMP-9 t = 15 min” value [5, 6] was 0%, the “% cleavage MMP-9 t = 60 min” value ([5]; t = 60 min (Table 9)) was 1% and the “% cleavage MMP-9 t = 60 min” value [5, 7] was 1%. The “% cleavage MMP-9 t = 120 min” value ([5]; t = 120 min (Table 9)) was 2% and the “% cleavage MMP-9 t = 120 min” value [5, 8] was 2%.

From patent US20240400614A1, “CLEAVABLE PEPTIDES AND METHODS OF USE THEREOF” (Bright Peak Therapeutics AG, priority 2023, published 2024)
